Target: T1, Rv0792c (Mycobacterium tuberculosis) (UniProt O86331)
T1 sequence: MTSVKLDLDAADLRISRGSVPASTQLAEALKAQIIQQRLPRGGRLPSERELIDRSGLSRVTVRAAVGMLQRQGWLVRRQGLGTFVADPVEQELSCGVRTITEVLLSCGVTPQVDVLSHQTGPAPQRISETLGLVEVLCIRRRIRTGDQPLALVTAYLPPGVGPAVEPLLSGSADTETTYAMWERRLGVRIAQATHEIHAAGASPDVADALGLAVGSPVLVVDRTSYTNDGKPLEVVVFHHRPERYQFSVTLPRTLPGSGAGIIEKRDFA
Assay: ALISA

Sequence | binding signal | Kd
TAGGGTCTCGGATCGGAGGGATGGGCAGTGTGTGCGGTATGTTG [Rv0792c_5 aptamer (printed Rv0729c_5)] | 90 % reduction | –
TCGTATTCATCTCTACATCCGGTAATCCGCACATGAGTAATCC [Rv0792c_1 aptamer (printed Rv0729c_1)] | 90 % reduction | –
TCTAGTCATTCGTCATAATCCCATCTGTTTCTTCCTCCTTCCGT [Rv0792c_2 aptamer (printed Rv0729c_2)] | – | 0.051 µM

Reference: doi:10.1101/2021.09.17.460839
